What follows are sequences tested against Hck (UniProt P08631) (assay: phosphorylation enrichment, bacterial display (enrichment ratio); higher = better substrate or ligand; peptides without Tyr show the background).
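Also: 11-residue human phosphosite peptides and single-mutation variants displayed on the E. coli surface, counted by deep sequencing, each peptide's frequency after selection divided by its frequency in the unselected input library; frequency after pTyr selection over input frequency; kinase dosed for 20-30% of maximal phosphorylation in three min.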

Hck, sequence (P08631 whole entry, looked up): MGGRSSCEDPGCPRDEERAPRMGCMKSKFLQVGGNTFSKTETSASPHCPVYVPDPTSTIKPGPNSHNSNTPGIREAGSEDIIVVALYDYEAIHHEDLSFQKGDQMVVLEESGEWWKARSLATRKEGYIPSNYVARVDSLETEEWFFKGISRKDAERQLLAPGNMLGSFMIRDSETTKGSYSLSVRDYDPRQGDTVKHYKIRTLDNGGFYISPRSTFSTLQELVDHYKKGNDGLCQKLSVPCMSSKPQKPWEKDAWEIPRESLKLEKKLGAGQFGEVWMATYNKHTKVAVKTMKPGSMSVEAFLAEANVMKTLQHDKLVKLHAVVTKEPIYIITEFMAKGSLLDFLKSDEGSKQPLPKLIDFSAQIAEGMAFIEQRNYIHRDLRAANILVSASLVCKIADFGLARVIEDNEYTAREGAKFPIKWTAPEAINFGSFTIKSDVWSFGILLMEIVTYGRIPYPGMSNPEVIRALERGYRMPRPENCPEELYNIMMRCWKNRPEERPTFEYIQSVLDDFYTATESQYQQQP

Sequence	phosphorylation enrichment
LLNPRYNLPLD [TOM1L1_Y109]	0.741
SDGHEYIFVDR [PDGFRB_Y579_P584R_YF]	0.398
ECKHLYSRKEG [PTPN11_Y263_L261H]	0.329
WDLPEYSYKDP [ITGA3_Y237_S235P]	0.787
AHPIIYTIIEA [PYKtide_no-pT_2014]	2.74
GKMPQYLESMQ [CYB5R3_Y130_S128P]	0.466
DFEGLYQEGGG [TMEM159_Y159_E154D]	1.22
FKDYFYCWNTS [AICDA_Y146_F151S]	0.599
WNDLDYVDSRR [GAA_Y407_M408V]	0.521
REQREYLEQLN [CCDC88B_Y1277_D1279E]	0.706
MKKMHYVDPDR [ST3GAL5_Y99_H104R]	0.349
TESALYGCTVL [KIAA1804_Y724]	4.05
FTTIHYNFMCN [TP53_Y234_C229Y_YF]	0.63
PRSRSYFSTSI [REPS2_Y462_S463F]	0.691
HLELNYKEDEY [MME_Y502_Y497H]	0.382
FQNGMYGLHQD [SGSH_Y89_H84Y_YF]	0.598
HVSISYDIPPT [GAB1_Y307]	0.644

Sequence	phosphorylation enrichment
IQRSLYDCPAS [PDGFRA_Y762_R764C]	2.25
IPPRRYFCSGV [STAMBP_Y36_R38C]	0.464
FEPDAYDDLDQ [ELP5_Y302_YF]	0.571
RQNQEYEILLD [KRT39_Y379]	0.705
AKYLGYPPPEI [KDR_Y357]	0.512
RLLVVYPWTQG [HBG2_Y36_R41G]	0.416
EEGRVYVFHLS [ITGAE_Y549_R552H_YF]	0.46
DKATEYIQYMR [MAX_Y70]	0.504
RSPLRYISILT [OR51B6_Y130_T131I]	0.515
LQTFRYHGLSM [PDHA1_Y289_H292L_YF]	0.578
QYQLKYSETPF [SIX6OS1_Y129]	0.722
KNSFKYYMSDD [ATRX_Y203_C200S]	0.477
TSQSQYFSFRE [CCDC170_Y323]	1.72
TEAEPYYCSLR [NPHS1_Y1138_R1140C]	4.2
EVKAQNEDIAQ [KRT1_Y358_Y358N]	0.488
RHPFFFAPELL [ALB_Y174_Y174F_YF]	0.859

What follows are sequences tested against EPHB2 (UniProt P29323) in the same assay as above.
EPHB2, sequence (P29323 whole entry, looked up): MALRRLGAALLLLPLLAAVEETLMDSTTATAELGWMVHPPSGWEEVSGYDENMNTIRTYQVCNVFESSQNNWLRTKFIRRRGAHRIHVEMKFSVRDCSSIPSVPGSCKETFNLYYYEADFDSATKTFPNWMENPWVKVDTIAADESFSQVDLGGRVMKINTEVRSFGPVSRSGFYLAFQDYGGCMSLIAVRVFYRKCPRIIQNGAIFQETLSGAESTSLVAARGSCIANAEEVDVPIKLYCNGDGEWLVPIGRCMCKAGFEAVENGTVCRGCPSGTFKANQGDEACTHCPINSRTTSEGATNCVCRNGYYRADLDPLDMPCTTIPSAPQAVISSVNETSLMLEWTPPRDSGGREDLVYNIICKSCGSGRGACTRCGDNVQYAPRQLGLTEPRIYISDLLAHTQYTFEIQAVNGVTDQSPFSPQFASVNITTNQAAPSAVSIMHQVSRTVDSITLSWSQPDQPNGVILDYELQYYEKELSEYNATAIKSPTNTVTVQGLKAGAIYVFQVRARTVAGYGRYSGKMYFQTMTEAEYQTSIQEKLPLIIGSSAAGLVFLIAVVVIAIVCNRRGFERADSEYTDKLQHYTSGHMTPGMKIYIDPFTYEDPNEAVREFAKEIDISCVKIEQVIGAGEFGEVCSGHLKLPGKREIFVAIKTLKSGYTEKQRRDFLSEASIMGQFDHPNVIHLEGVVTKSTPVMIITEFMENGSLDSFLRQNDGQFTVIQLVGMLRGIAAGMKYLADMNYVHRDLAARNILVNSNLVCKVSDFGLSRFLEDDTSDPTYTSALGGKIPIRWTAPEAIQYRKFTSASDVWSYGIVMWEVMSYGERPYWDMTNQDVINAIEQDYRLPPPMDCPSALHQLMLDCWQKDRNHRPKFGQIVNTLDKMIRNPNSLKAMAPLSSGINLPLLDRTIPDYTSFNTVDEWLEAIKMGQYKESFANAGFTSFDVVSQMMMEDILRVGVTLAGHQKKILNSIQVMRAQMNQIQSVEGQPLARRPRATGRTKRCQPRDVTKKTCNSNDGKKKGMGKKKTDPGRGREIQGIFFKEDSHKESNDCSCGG

Sequence	phosphorylation enrichment
LLNPRYNLPLD [TOM1L1_Y109]	0.822
SDGHEYIFVDR [PDGFRB_Y579_P584R_YF]	0.448
ECKHLYSRKEG [PTPN11_Y263_L261H]	0.285
WDLPEYSYKDP [ITGA3_Y237_S235P]	0.651
AHPIIYTIIEA [PYKtide_no-pT_2014]	1.3
GKMPQYLESMQ [CYB5R3_Y130_S128P]	0.412
DFEGLYQEGGG [TMEM159_Y159_E154D]	0.791
FKDYFYCWNTS [AICDA_Y146_F151S]	2.58
WNDLDYVDSRR [GAA_Y407_M408V]	0.869
REQREYLEQLN [CCDC88B_Y1277_D1279E]	0.559
MKKMHYVDPDR [ST3GAL5_Y99_H104R]	0.388
TESALYGCTVL [KIAA1804_Y724]	0.885
FTTIHYNFMCN [TP53_Y234_C229Y_YF]	0.65
PRSRSYFSTSI [REPS2_Y462_S463F]	0.797
HLELNYKEDEY [MME_Y502_Y497H]	0.535
FQNGMYGLHQD [SGSH_Y89_H84Y_YF]	0.543
HVSISYDIPPT [GAB1_Y307]	1.18

Sequence	phosphorylation enrichment
IQRSLYDCPAS [PDGFRA_Y762_R764C]	2.5
IPPRRYFCSGV [STAMBP_Y36_R38C]	0.466
FEPDAYDDLDQ [ELP5_Y302_YF]	0.684
RQNQEYEILLD [KRT39_Y379]	1.21
AKYLGYPPPEI [KDR_Y357]	0.535
RLLVVYPWTQG [HBG2_Y36_R41G]	0.378
EEGRVYVFHLS [ITGAE_Y549_R552H_YF]	0.573
DKATEYIQYMR [MAX_Y70]	0.451
RSPLRYISILT [OR51B6_Y130_T131I]	0.473
LQTFRYHGLSM [PDHA1_Y289_H292L_YF]	0.822
QYQLKYSETPF [SIX6OS1_Y129]	0.907
KNSFKYYMSDD [ATRX_Y203_C200S]	0.531
TSQSQYFSFRE [CCDC170_Y323]	0.368
TEAEPYYCSLR [NPHS1_Y1138_R1140C]	1.43
EVKAQNEDIAQ [KRT1_Y358_Y358N]	0.549
RHPFFFAPELL [ALB_Y174_Y174F_YF]	0.842

Each sequence was assayed against MERTK (UniProt Q12866) in the same assay as above.
MERTK, sequence (Q12866 whole entry, looked up): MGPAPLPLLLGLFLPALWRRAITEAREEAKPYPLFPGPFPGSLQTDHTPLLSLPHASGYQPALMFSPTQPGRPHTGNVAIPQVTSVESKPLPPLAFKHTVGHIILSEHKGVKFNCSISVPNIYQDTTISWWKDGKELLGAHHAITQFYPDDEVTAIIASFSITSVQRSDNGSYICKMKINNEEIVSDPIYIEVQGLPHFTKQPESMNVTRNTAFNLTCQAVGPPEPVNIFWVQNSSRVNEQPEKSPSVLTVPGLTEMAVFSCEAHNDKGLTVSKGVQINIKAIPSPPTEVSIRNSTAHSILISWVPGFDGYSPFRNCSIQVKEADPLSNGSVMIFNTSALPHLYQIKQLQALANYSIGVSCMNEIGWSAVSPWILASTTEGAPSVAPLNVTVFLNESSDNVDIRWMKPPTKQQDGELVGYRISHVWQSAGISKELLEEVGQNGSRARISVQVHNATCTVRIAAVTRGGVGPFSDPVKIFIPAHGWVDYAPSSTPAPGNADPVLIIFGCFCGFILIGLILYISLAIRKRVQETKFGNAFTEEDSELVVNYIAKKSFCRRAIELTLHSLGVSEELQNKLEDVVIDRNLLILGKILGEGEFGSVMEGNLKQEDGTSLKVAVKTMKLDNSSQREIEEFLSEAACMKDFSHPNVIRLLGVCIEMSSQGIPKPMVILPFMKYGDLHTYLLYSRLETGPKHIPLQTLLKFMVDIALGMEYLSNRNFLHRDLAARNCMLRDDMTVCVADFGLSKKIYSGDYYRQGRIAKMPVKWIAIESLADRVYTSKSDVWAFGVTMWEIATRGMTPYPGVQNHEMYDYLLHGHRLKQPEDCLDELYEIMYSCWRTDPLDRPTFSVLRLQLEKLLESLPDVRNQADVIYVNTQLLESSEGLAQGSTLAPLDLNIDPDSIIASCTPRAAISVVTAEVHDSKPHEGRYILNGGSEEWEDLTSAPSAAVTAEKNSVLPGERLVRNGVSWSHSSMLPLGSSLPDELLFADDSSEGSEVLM

Sequence	phosphorylation enrichment
LLNPRYNLPLD [TOM1L1_Y109]	1.16
SDGHEYIFVDR [PDGFRB_Y579_P584R_YF]	0.35
ECKHLYSRKEG [PTPN11_Y263_L261H]	0.388
WDLPEYSYKDP [ITGA3_Y237_S235P]	0.464
AHPIIYTIIEA [PYKtide_no-pT_2014]	7.03
GKMPQYLESMQ [CYB5R3_Y130_S128P]	0.473
DFEGLYQEGGG [TMEM159_Y159_E154D]	0.453
FKDYFYCWNTS [AICDA_Y146_F151S]	2.14
WNDLDYVDSRR [GAA_Y407_M408V]	0.357
REQREYLEQLN [CCDC88B_Y1277_D1279E]	0.58
MKKMHYVDPDR [ST3GAL5_Y99_H104R]	0.294
TESALYGCTVL [KIAA1804_Y724]	1.46
FTTIHYNFMCN [TP53_Y234_C229Y_YF]	0.495
PRSRSYFSTSI [REPS2_Y462_S463F]	0.496
HLELNYKEDEY [MME_Y502_Y497H]	0.396
FQNGMYGLHQD [SGSH_Y89_H84Y_YF]	0.456
HVSISYDIPPT [GAB1_Y307]	6.11

Sequence	phosphorylation enrichment
IQRSLYDCPAS [PDGFRA_Y762_R764C]	3.85
IPPRRYFCSGV [STAMBP_Y36_R38C]	0.432
FEPDAYDDLDQ [ELP5_Y302_YF]	0.57
RQNQEYEILLD [KRT39_Y379]	0.63
AKYLGYPPPEI [KDR_Y357]	0.378
RLLVVYPWTQG [HBG2_Y36_R41G]	0.27
EEGRVYVFHLS [ITGAE_Y549_R552H_YF]	0.48
DKATEYIQYMR [MAX_Y70]	0.4
RSPLRYISILT [OR51B6_Y130_T131I]	0.376
LQTFRYHGLSM [PDHA1_Y289_H292L_YF]	0.747
QYQLKYSETPF [SIX6OS1_Y129]	0.838
KNSFKYYMSDD [ATRX_Y203_C200S]	0.479
TSQSQYFSFRE [CCDC170_Y323]	0.818
TEAEPYYCSLR [NPHS1_Y1138_R1140C]	2.78
EVKAQNEDIAQ [KRT1_Y358_Y358N]	0.511
RHPFFFAPELL [ALB_Y174_Y174F_YF]	0.727

What follows are sequences tested on Fer (mouse) in the same assay as above.

Sequence	phosphorylation enrichment
LLNPRYNLPLD [TOM1L1_Y109]	0.62
SDGHEYIFVDR [PDGFRB_Y579_P584R_YF]	0.329
ECKHLYSRKEG [PTPN11_Y263_L261H]	0.4
WDLPEYSYKDP [ITGA3_Y237_S235P]	0.517
AHPIIYTIIEA [PYKtide_no-pT_2014]	3.1
GKMPQYLESMQ [CYB5R3_Y130_S128P]	0.304
DFEGLYQEGGG [TMEM159_Y159_E154D]	0.64
FKDYFYCWNTS [AICDA_Y146_F151S]	1.03
WNDLDYVDSRR [GAA_Y407_M408V]	0.45
REQREYLEQLN [CCDC88B_Y1277_D1279E]	0.523
MKKMHYVDPDR [ST3GAL5_Y99_H104R]	0.346
TESALYGCTVL [KIAA1804_Y724]	4.71
FTTIHYNFMCN [TP53_Y234_C229Y_YF]	0.565
PRSRSYFSTSI [REPS2_Y462_S463F]	0.436
HLELNYKEDEY [MME_Y502_Y497H]	0.344
FQNGMYGLHQD [SGSH_Y89_H84Y_YF]	0.454
HVSISYDIPPT [GAB1_Y307]	0.732

Sequence	phosphorylation enrichment
IQRSLYDCPAS [PDGFRA_Y762_R764C]	4.18
IPPRRYFCSGV [STAMBP_Y36_R38C]	0.403
FEPDAYDDLDQ [ELP5_Y302_YF]	0.6
RQNQEYEILLD [KRT39_Y379]	0.595
AKYLGYPPPEI [KDR_Y357]	0.398
RLLVVYPWTQG [HBG2_Y36_R41G]	0.289
EEGRVYVFHLS [ITGAE_Y549_R552H_YF]	0.648
DKATEYIQYMR [MAX_Y70]	0.394
RSPLRYISILT [OR51B6_Y130_T131I]	0.606
LQTFRYHGLSM [PDHA1_Y289_H292L_YF]	1.27
QYQLKYSETPF [SIX6OS1_Y129]	0.43
KNSFKYYMSDD [ATRX_Y203_C200S]	0.405
TSQSQYFSFRE [CCDC170_Y323]	0.461
TEAEPYYCSLR [NPHS1_Y1138_R1140C]	1.8
EVKAQNEDIAQ [KRT1_Y358_Y358N]	0.411
RHPFFFAPELL [ALB_Y174_Y174F_YF]	0.529
